The values below come from patent US20100260668A1 (published 2010).

The term EC50 denotes the concentration that produces a half-maximal response.

Assay [1] concerns the target T1, VEGF (VEGF 1-165 aa, R&D Systems 293-VE-010) (UniProt P15692 27-191).
T1 construct: bought reagent; also called vascular endothelial growth factor
Nature of the assay: Direct bind ELISA, VEGF coated on plate; VEGF domain N-term., HC short/LC short. Background: In an ELISA, binding on a coated surface is turned into a signal by an enzyme label.

The target in assay [2] is T1, VEGF (VEGF 1-165 aa, R&D Systems …). Nature of the assay: Direct bind ELISA, VEGF coated on plate; VEGF domain N-term., HC long/LC short.
For assay [3] the target is unchanged. Nature of the assay: Direct bind ELISA, VEGF coated on plate; VEGF domain C-term., HC long/LC short.
The target is the same in assay [4]. Nature of the assay: Direct bind ELISA, VEGF coated on plate; VEGF domain C-term., HC long/LC long.
Assay [5] shares this target. Nature of the assay: Direct bind ELISA, VEGF coated on plate; VEGF domain C-term., HC short/LC long.

T1 sequence (P15692 other isoform, or with tags, fused parts or gaps limits assumed): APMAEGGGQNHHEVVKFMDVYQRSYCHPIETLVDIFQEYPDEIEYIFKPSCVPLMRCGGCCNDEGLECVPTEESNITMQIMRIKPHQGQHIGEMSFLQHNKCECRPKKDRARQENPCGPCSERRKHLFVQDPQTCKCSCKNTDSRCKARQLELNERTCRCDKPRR

B1: DVD490 (bispecific antibody, human IgG1, kappa)
heavy: not shown
light: DIQMTQSPSSLSASVGDRVTITCRASQDVSTAVAWYQQKPGKAPKLLIYSASFLYSGVPSRFSGSGSGTDFTLTISSLQPEDFATYYCQQSYTTPPTFGQGTKVEIKRTVAAPDIQMTQSSSYLSVSLGGRVTITCKASDHINNWLAWYQQKPGNAPRLLISGATSLETGVPSRFSGSGSGKDYTLSITSLQTEDVATYYCQQYWSIPLTFGAGTKLELKRTVAAPSVFIFPPSDEQLKSGTASVVCLLNNFYPREAKVQWKVDNALQSGNSQESVTEQDSKDSTYSLSSTLTLSKADYEKHKVYACEVTHQGLSSPVTKSFNRGEC
notes: DVD-Ig; N-term; AB070 (VEGF), C-term; AB072 (DLL4); HC linker short, LC linker short; also called DVD-Ig DVD490; DVD490H/DVD490L
In the case of B1, in assay [1], the response was half-maximal at 6.7 nM (EC50).

B2: DVD502 (bispecific antibody, human IgG1, kappa)
heavy: not shown
light: DIQMTQSPSSLSASVGDRVTITCRASQDVSTAVAWYQQKPGKAPKLLIYSASFLYSGVPSRFSGSGSGTDFTLTISSLQPEDFATYYCQQSYTTPPTFGQGTKVEIKRTVAAPDIQMTQSSSYLSVSLGGRVTITCKASDHINNWLAWYQQKPGNAPRLLISGATSLETGVPSRFSGSGSGKDYTLSITSLQTEDVATYYCQQYWSIPLTFGAGTKLELKRTVAAPSVFIFPPSDEQLKSGTASVVCLLNNFYPREAKVQWKVDNALQSGNSQESVTEQDSKDSTYSLSSTLTLSKADYEKHKVYACEVTHQGLSSPVTKSFNRGEC
notes: DVD-Ig; N-term; AB070 (VEGF), C-term; AB072 (DLL4); HC linker long, LC linker short; also called DVD-Ig DVD502; DVD502H/DVD502L
B2 showed an EC50 in assay [2] of 3.25 nM. This lies in the single-digit nanomolar range.

B3: DVD525 (bispecific antibody, human IgG1, kappa)
heavy: not shown
light: QAVVTQESALTTSPGETVTLTCRSSTGAVTTSNYANWVQEKPDHLFTGLIGGTNNRAPGVPARFSGSLIGDKAALTITGAQTEDEAIYFCALWYSNHWVFGGGTKLTVLGQPKAAPDIQMTQSPSSLSASVGDRVTITCRASQDVSTAVAWYQQKPGKAPKLLIYSASFLYSGVPSRFSGSGSGTDFTLTISSLQPEDFATYYCQQSYTTPPTFGQGTKVEIKRTVAAPSVFIFPPSDEQLKSGTASVVCLLNNFYPREAKVQWKVDNALQSGNSQESVTEQDSKDSTYSLSSTLTLSKADYEKHKVYACEVTHQGLSSPVTKSFNRGEC
notes: DVD-Ig; N-term; AB073 (DLL4), C-term; AB070 (VEGF); HC linker long, LC linker short; also called DVD-Ig DVD525; DVD525H/DVD525L
B3 yielded a half-maximal effective concentration (EC50) in assay [3] of 21.8 nM.

B4: DVD497 (bispecific antibody, human IgG1, kappa)
heavy: not shown
light: DIQMTQSSSYLSVSLGGRVTITCKASDHINNWLAWYQQKPGNAPRLLISGATSLETGVPSRFSGSGSGKDYTLSITSLQTEDVATYYCQQYWSIPLTFGAGTKLELKRTVAAPSVFIFPPDIQMTQSPSSLSASVGDRVTITCRASQVIRRSLAWYQQKPGKAPKLLIYAASNLASGVPSRFSGSGSGTDFTLTISSLQPEDFATYYCQQSNTSPLTFGQGTKVEIKRTVAAPSVFIFPPSDEQLKSGTASVVCLLNNFYPREAKVQWKVDNALQSGNSQESVTEQDSKDSTYSLSSTLTLSKADYEKHKVYACEVTHQGLSSPVTKSFNRGEC
notes: DVD-Ig; N-term; AB072 (DLL4), C-term; AB071 (VEGF); HC linker long, LC linker long; also called DVD-Ig DVD497; DVD497H/DVD497L
In assay [4], B4 showed an EC50 of 858 nM.

B5: DVD503 (bispecific antibody, human IgG1, kappa)
heavy: not shown
light: DIQMTQSSSYLSVSLGGRVTITCKASDHINNWLAWYQQKPGNAPRLLISGATSLETGVPSRFSGSGSGKDYTLSITSLQTEDVATYYCQQYWSIPLTFGAGTKLELKRTVAAPDIQMTQSPSSLSASVGDRVTITCRASQVIRRSLAWYQQKPGKAPKLLIYAASNLASGVPSRFSGSGSGTDFTLTISSLQPEDFATYYCQQSNTSPLTFGQGTKVEIKRTVAAPSVFIFPPSDEQLKSGTASVVCLLNNFYPREAKVQWKVDNALQSGNSQESVTEQDSKDSTYSLSSTLTLSKADYEKHKVYACEVTHQGLSSPVTKSFNRGEC
notes: DVD-Ig; N-term; AB072 (DLL4), C-term; AB071 (VEGF); HC linker long, LC linker short; also called DVD-Ig DVD503; DVD503H/DVD503L
In turn, B5 showed an EC50 in assay [3] of 430 nM. That is a sub-micromolar value.

B6: DVD504 (bispecific antibody, human IgG1, kappa)
heavy: not shown
light: DIQMTQSPSSLSASVGDRVTITCRASQVIRRSLAWYQQKPGKAPKLLIYAASNLASGVPSRFSGSGSGTDFTLTISSLQPEDFATYYCQQSNTSPLTFGQGTKVEIKRTVAAPDIQMTQSSSYLSVSLGGRVTITCKASDHINNWLAWYQQKPGNAPRLLISGATSLETGVPSRFSGSGSGKDYTLSITSLQTEDVATYYCQQYWSIPLTFGAGTKLELKRTVAAPSVFIFPPSDEQLKSGTASVVCLLNNFYPREAKVQWKVDNALQSGNSQESVTEQDSKDSTYSLSSTLTLSKADYEKHKVYACEVTHQGLSSPVTKSFNRGEC
notes: DVD-Ig; N-term; AB071 (VEGF), C-term; AB072 (DLL4); HC linker long, LC linker short; also called DVD-Ig DVD504; DVD504H/DVD504L
In assay [2], B6 came in with an EC50 of 16.7 nM.

B7: DVD501 (bispecific antibody, human IgG1, kappa)
heavy: not shown
light: DIQMTQSSSYLSVSLGGRVTITCKASDHINNWLAWYQQKPGNAPRLLISGATSLETGVPSRFSGSGSGKDYTLSITSLQTEDVATYYCQQYWSIPLTFGAGTKLELKRTVAAPDIQMTQSPSSLSASVGDRVTITCRASQDVSTAVAWYQQKPGKAPKLLIYSASFLYSGVPSRFSGSGSGTDFTLTISSLQPEDFATYYCQQSYTTPPTFGQGTKVEIKRTVAAPSVFIFPPSDEQLKSGTASVVCLLNNFYPREAKVQWKVDNALQSGNSQESVTEQDSKDSTYSLSSTLTLSKADYEKHKVYACEVTHQGLSSPVTKSFNRGEC
notes: DVD-Ig; N-term; AB072 (DLL4), C-term; AB070 (VEGF); HC linker long, LC linker short; also called DVD-Ig DVD501; DVD501H/DVD501L
The molecule B7 came in with an EC50 in assay [3] of 45.2 nM.

B8: DVD526 (bispecific antibody, human IgG1, lambda)
heavy: not shown
light: DIQMTQSPSSLSASVGDRVTITCRASQDVSTAVAWYQQKPGKAPKLLIYSASFLYSGVPSRFSGSGSGTDFTLTISSLQPEDFATYYCQQSYTTPPTFGQGTKVEIKRTVAAPQAVVTQESALTTSPGETVTLTCRSSTGAVTTSNYANWVQEKPDHLFTGLIGGTNNRAPGVPARFSGSLIGDKAALTITGAQTEDEAIYFCALWYSNHWVFGGGTKLTVLGQPKAAPSVTLFPPSSEELQANKATLVCLISDFYPGAVTVAWKADSSPVKAGVETTTPSKQSNNKYAASSYLSLTPEQWKSHRSYSCQVTHEGSTVEKTVAPTECS
notes: DVD-Ig; N-term; AB070 (VEGF), C-term; AB073 (DLL4); HC linker long, LC linker short; also called DVD-Ig DVD526; DVD526H/DVD526L
Regarding B8, the response in assay [2] was half-maximal at 96.2 nM (EC50). In other words, the double-digit nanomolar range.

B9: DVD495 (bispecific antibody, human IgG1, kappa)
heavy: not shown
light: DIQMTQSSSYLSVSLGGRVTITCKASDHINNWLAWYQQKPGNAPRLLISGATSLETGVPSRFSGSGSGKDYTLSITSLQTEDVATYYCQQYWSIPLTFGAGTKLELKRTVAAPSVFIFPPDIQMTQSPSSLSASVGDRVTITCRASQDVSTAVAWYQQKPGKAPKLLIYSASFLYSGVPSRFSGSGSGTDFTLTISSLQPEDFATYYCQQSYTTPPTFGQGTKVEIKRTVAAPSVFIFPPSDEQLKSGTASVVCLLNNFYPREAKVQWKVDNALQSGNSQESVTEQDSKDSTYSLSSTLTLSKADYEKHKVYACEVTHQGLSSPVTKSFNRGEC
notes: DVD-Ig; N-term; AB072 (DLL4), C-term; AB070 (VEGF); HC linker long, LC linker long; also called DVD-Ig DVD495; DVD495H/DVD495L
B9: a half-maximal response in assay [4] (EC50) required 70 nM.

B10: DVD519 (bispecific antibody, human IgG1, kappa, lambda)
heavy: not shown
light: QAVVTQESALTTSPGETVTLTCRSSTGAVTTSNYANWVQEKPDHLFTGLIGGTNNRAPGVPARFSGSLIGDKAALTITGAQTEDEAIYFCALWYSNHWVFGGGTKLTVLGQPKAAPSVTLFPPDIQMTQSPSSLSASVGDRVTITCRASQDVSTAVAWYQQKPGKAPKLLIYSASFLYSGVPSRFSGSGSGTDFTLTISSLQPEDFATYYCQQSYTTPPTFGQGTKVEIKRTVAAPSVFIFPPSDEQLKSGTASVVCLLNNFYPREAKVQWKVDNALQSGNSQESVTEQDSKDSTYSLSSTLTLSKADYEKHKVYACEVTHQGLSSPVTKSFNRGEC
notes: DVD-Ig; N-term; AB073 (DLL4), C-term; AB070 (VEGF); HC linker long, LC linker long; also called DVD-Ig DVD519; DVD519H/DVD519L
For the molecule B10, a half-maximal effect in assay [4] (EC50) was put at 77.2 nM. The EC50 values of the last two molecules are within 1.5-fold of each other.

B11: DVD531 (bispecific antibody, human IgG1, kappa, lambda)
heavy: not shown
light: QAVVTQESALTTSPGETVTLTCRSSTGAVTTSNYANWVQEKPDHLFTGLIGGTNNRAPGVPARFSGSLIGDKAALTITGAQTEDEAIYFCALWYSNHWVFGGGTKLTVLGQPKAAPSVTLFPPDIQMTQSPSSLSASVGDRVTITCRASQDVSTAVAWYQQKPGKAPKLLIYSASFLYSGVPSRFSGSGSGTDFTLTISSLQPEDFATYYCQQSYTTPPTFGQGTKVEIKRTVAAPSVFIFPPSDEQLKSGTASVVCLLNNFYPREAKVQWKVDNALQSGNSQESVTEQDSKDSTYSLSSTLTLSKADYEKHKVYACEVTHQGLSSPVTKSFNRGEC
notes: DVD-Ig; N-term; AB073 (DLL4), C-term; AB070 (VEGF); HC linker short, LC linker long; also called DVD-Ig DVD531; DVD531H/DVD531L
Consider B11, for which the EC50 in assay [5] turned out to be 60.4 nM.
